Measurements: publication PMC11746154

B1: Gal4AD-Spo11 [S. cerevisiae] / Rec104-LexA [S. cerevisiae] (parent)
chain 1: MALEGLRKKYKTRQELVKALTPKRRSIHLNSNGHSNGTPCSNADVLAHIKHFLSLAANSLEQHQQPISIVFQNKKKKGDTSSPDIHTTLDFPLNGPHLCTHQFKLKRCAILLNLLKVVMEKLPLGKNTTVRDIFYSNVELFQRQANVVQWLDVIRFNFKLSPRKSLNIIPAQKGLVYSPFPIDIYDNILTCENEPKMQKQTIFPGKPCLIPFFQDDAVIKLGTTSMCNIVIVEKEAVFTKLVNNYHKLSTNTMLITGKGFPDFLTRLFLKKLEQYCSKLISDCSIFTDADPYGISIALNYTHSNERNAYICTMANYKGIRITQVLAQNNEVHNKSIQLLSLNQRDYSLAKNLIASLTANSWDIATSPLKNVIIECQREIFFQKKAEMNEIDARIFEYK
chain 2: MSIEEEDTNKITCTQDFLHQYFVTERVSIQFGLNNKTVKRINKDEFDKAVNCIMSWTNYPKPGLKRTASTYLLSNSFKKSATVSLPFILGDPVCMPKRVESNNNDTCLLYSDTLYDDPLIQRNDQAGDEIEDEFSFTLLRSEVNEIRPISSSSTAQILQSDYSALMYERQASNGSIFQFSSP
B2: Gal4AD-Spo11 [S. cerevisiae] / LexA-Rec102 [S. cerevisiae] (parent)
chain 1: B1 chain 1
chain 2: MARDITFLTVFLESCGAVNNDEAGKLLSAWTSTVRIEGPESTDSNSLYIPLLPPGMLKIKLNFKMNDRLVTEEQELFTKLREIVGSSIRFWEEQLFYQVQDVSTIENHVILSLKCTILTDAQISTFISKPRELHTHAKGYPEIYYLSELSTTVNFFSKEGNYVEISQVIPHFNEYFSSLIVSQLEFEYPMVFSMISRLRLKWQQSSLAPISYALTSNSVLLPIMLNMIAQDKSSTTAYQILCRRRGPPIQNFQIFSLPAVTYNK

Variants of: B1
Assay: Y2H β-galactosidase assay
Conditions: with Rec104-LexA [S. cerevisiae]; parent: 1; read off a plot

response (normalized β-gal units)	Variant
0.72	chain 1 MALEGLRAKYKTRQELVKALTPKRRSIHLNSNGHSNGTPCSNADVLAHIKHFLSLAANSLEQHQQPISIVFQNKKKKGDTSSPDIHTTLDFPLNGPHLCTHQFKLKRCAILLNLLKVVMEKLPLGKNTTVRDIFYSNVELFQRQANVVQWLDVIRFNFKLSPRKSLNIIPAQKGLVYSPFPIDIYDNILTCENEPKMQKQTIFPGKPCLIPFFQDDAVIKLGTTSMCNIVIVEKEAVFTKLVNNYHKLSTNTMLITGKGFPDFLTRLFLKKLEQYCSKLISDCSIFTDADPYGISIALNYTHSNERNAYICTMANYKGIRITQVLAQNNEVHNKSIQLLSLNQRDYSLAKNLIASLTANSWDIATSPLKNVIIECQREIFFQKKAEMNEIDARIFEYK [chain 1 K8A]
0.85	chain 1 MALEGLAKKYKTRQELVKALTPKRRSIHLNSNGHSNGTPCSNADVLAHIKHFLSLAANSLEQHQQPISIVFQNKKKKGDTSSPDIHTTLDFPLNGPHLCTHQFKLKRCAILLNLLKVVMEKLPLGKNTTVRDIFYSNVELFQRQANVVQWLDVIRFNFKLSPRKSLNIIPAQKGLVYSPFPIDIYDNILTCENEPKMQKQTIFPGKPCLIPFFQDDAVIKLGTTSMCNIVIVEKEAVFTKLVNNYHKLSTNTMLITGKGFPDFLTRLFLKKLEQYCSKLISDCSIFTDADPYGISIALNYTHSNERNAYICTMANYKGIRITQVLAQNNEVHNKSIQLLSLNQRDYSLAKNLIASLTANSWDIATSPLKNVIIECQREIFFQKKAEMNEIDARIFEYK [chain 1 R7A]
0.24	chain 1 MALEGLDKKYKTRQELVKALTPKRRSIHLNSNGHSNGTPCSNADVLAHIKHFLSLAANSLEQHQQPISIVFQNKKKKGDTSSPDIHTTLDFPLNGPHLCTHQFKLKRCAILLNLLKVVMEKLPLGKNTTVRDIFYSNVELFQRQANVVQWLDVIRFNFKLSPRKSLNIIPAQKGLVYSPFPIDIYDNILTCENEPKMQKQTIFPGKPCLIPFFQDDAVIKLGTTSMCNIVIVEKEAVFTKLVNNYHKLSTNTMLITGKGFPDFLTRLFLKKLEQYCSKLISDCSIFTDADPYGISIALNYTHSNERNAYICTMANYKGIRITQVLAQNNEVHNKSIQLLSLNQRDYSLAKNLIASLTANSWDIATSPLKNVIIECQREIFFQKKAEMNEIDARIFEYK [chain 1 R7D]

Same assay, conditions: with Gal4AD-Spo11 [S. cerevisiae]; parent: 1; read off a plot

Variant	response (normalized β-gal units)
chain 2 MSIEEEDTNKITCTQRFLHQYFVTERVSIQFGLNNKTVKRINKDEFDKAVNCIMSWTNYPKPGLKRTASTYLLSNSFKKSATVSLPFILGDPVCMPKRVESNNNDTCLLYSDTLYDDPLIQRNDQAGDEIEDEFSFTLLRSEVNEIRPISSSSTAQILQSDYSALMYERQASNGSIFQFSSP [chain 2 D16R]	0.53
chain 2 MSIEEEDTNKITCTQAFLHQYFVTERVSIQFGLNNKTVKRINKDEFDKAVNCIMSWTNYPKPGLKRTASTYLLSNSFKKSATVSLPFILGDPVCMPKRVESNNNDTCLLYSDTLYDDPLIQRNDQAGDEIEDEFSFTLLRSEVNEIRPISSSSTAQILQSDYSALMYERQASNGSIFQFSSP [chain 2 D16A]	1.1

The next lines start with the values.

response (normalized β-gal units)	Variant
0.93	chain 2 MSIEEEDTNKITCTQDFLHQYAVTERVSIQFGLNNKTVKRINKDEFDKAVNCIMSWTNYPKPGLKRTASTYLLSNSFKKSATVSLPFILGDPVCMPKRVESNNNDTCLLYSDTLYDDPLIQRNDQAGDEIEDEFSFTLLRSEVNEIRPISSSSTAQILQSDYSALMYERQASNGSIFQFSSP [chain 2 F22A]
0.75	chain 2 MSIEEEDTNKITCTQDFLHAYFVTERVSIQFGLNNKTVKRINKDEFDKAVNCIMSWTNYPKPGLKRTASTYLLSNSFKKSATVSLPFILGDPVCMPKRVESNNNDTCLLYSDTLYDDPLIQRNDQAGDEIEDEFSFTLLRSEVNEIRPISSSSTAQILQSDYSALMYERQASNGSIFQFSSP [chain 2 Q20A]
0.02	chain 2 MSIEEEDTNKITCTQDFLHQAFVTERVSIQFGLNNKTVKRINKDEFDKAVNCIMSWTNYPKPGLKRTASTYLLSNSFKKSATVSLPFILGDPVCMPKRVESNNNDTCLLYSDTLYDDPLIQRNDQAGDEIEDEFSFTLLRSEVNEIRPISSSSTAQILQSDYSALMYERQASNGSIFQFSSP [chain 2 Y21A]

Variants of: B2
Assay: Y2H quantitative β-galactosidase assay
Conditions: with LexA-Rec102 [S. cerevisiae]; parent: 1; read off a plot

response (normalized β-gal units)	Variant
0.27	chain 1 MAAEGLRKKYKTRQELVKALTPKRRSIHLNSNGHSNGTPCSNADVLAHIKHFLSLAANSLEQHQQPISIVFQNKKKKGDTSSPDIHTTLDFPLNGPHLCTHQFKLKRCAILLNLLKVVMEKLPLGKNTTVRDIFYSNVELFQRQANVVQWLDVIRFNFKLSPRKSLNIIPAQKGLVYSPFPIDIYDNILTCENEPKMQKQTIFPGKPCLIPFFQDDAVIKLGTTSMCNIVIVEKEAVFTKLVNNYHKLSTNTMLITGKGFPDFLTRLFLKKLEQYCSKLISDCSIFTDADPYGISIALNYTHSNERNAYICTMANYKGIRITQVLAQNNEVHNKSIQLLSLNQRDYSLAKNLIASLTANSWDIATSPLKNVIIECQREIFFQKKAEMNEIDARIFEYK [chain 1 L3A]
0.3	chain 1 MALEGLRKKYKTRQELVKALTPKRRSIHLNSNGHSNGTPCSNADVLAHIKHFLSLAANSLEQHQQPISIVFQNKKKKGDTSSPDIHTTLDAPLNGPHLCTHQFKLKRCAILLNLLKVVMEKLPLGKNTTVRDIFYSNVELFQRQANVVQWLDVIRFNFKLSPRKSLNIIPAQKGLVYSPFPIDIYDNILTCENEPKMQKQTIFPGKPCLIPFFQDDAVIKLGTTSMCNIVIVEKEAVFTKLVNNYHKLSTNTMLITGKGFPDFLTRLFLKKLEQYCSKLISDCSIFTDADPYGISIALNYTHSNERNAYICTMANYKGIRITQVLAQNNEVHNKSIQLLSLNQRDYSLAKNLIASLTANSWDIATSPLKNVIIECQREIFFQKKAEMNEIDARIFEYK [chain 1 F91A]
0.35	chain 1 MALEGLRKKYKTRQELVKALTPKRRSIHLNSNGHSNGTPCSNADVLAHIKHFLSLAANSLEQHQQPISIVFQNKKKKGDTSSPDIHTTLDFPLNGPHLCTHQAKLKRCAILLNLLKVVMEKLPLGKNTTVRDIFYSNVELFQRQANVVQWLDVIRFNFKLSPRKSLNIIPAQKGLVYSPFPIDIYDNILTCENEPKMQKQTIFPGKPCLIPFFQDDAVIKLGTTSMCNIVIVEKEAVFTKLVNNYHKLSTNTMLITGKGFPDFLTRLFLKKLEQYCSKLISDCSIFTDADPYGISIALNYTHSNERNAYICTMANYKGIRITQVLAQNNEVHNKSIQLLSLNQRDYSLAKNLIASLTANSWDIATSPLKNVIIECQREIFFQKKAEMNEIDARIFEYK [chain 1 F103A]
0.17	chain 1 MALEGLRKKYKTRQELVKALTPKRRSIHLNSNGHSNGTPCSNADVLAHIKHFLSLAANSLEQHQQPISIVFQNKKKKGDTSSPDIHTTLDFPLNAPHLCTHQFKLKRCAILLNLLKVVMEKLPLGKNTTVRDIFYSNVELFQRQANVVQWLDVIRFNFKLSPRKSLNIIPAQKGLVYSPFPIDIYDNILTCENEPKMQKQTIFPGKPCLIPFFQDDAVIKLGTTSMCNIVIVEKEAVFTKLVNNYHKLSTNTMLITGKGFPDFLTRLFLKKLEQYCSKLISDCSIFTDADPYGISIALNYTHSNERNAYICTMANYKGIRITQVLAQNNEVHNKSIQLLSLNQRDYSLAKNLIASLTANSWDIATSPLKNVIIECQREIFFQKKAEMNEIDARIFEYK [chain 1 G95A]

Same assay, conditions: with Gal4AD-Spo11 [S. cerevisiae]; parent: 1; read off a plot

response (normalized β-gal units)	Variant
0.12	chain 2 MARDITFLTVFLESCGAVNNDEAGKLLSAWTSTVRIEGPESTDSNSLYIPLLPPGMLKIKLNFKMNDRLVTEEQELFTKLREIVGSSIRFWEEQLFYQVQDVSTIENHVILSLKCTILTDAQISTFISKPRELHTHAKGYPEIYYLSELSTTVNFFSKEGNYVEISQVIPHFNEYFSSLIVSQLEFEYPMVFSMISRLRLKWQQSSLAPISYALTSNSVLLPIMLNMIAQDKASTTAYQILCRRRGPPIQNFQIFSLPAVTYNK [chain 2 S233A]
0.1	chain 2 MARDITFLTVFLESCGAVNNDEAGKLLSAWTSTVRIEGPESTDSNSLYIPLLPPGMLKIKLNFKMNDRLVTEEQELFTKLREIVGSSIRFWEEQLFYQVQDVSTIENHVILSLKCTILTDAQISTFISKPRELHTHAKGYPEIYYLSELSTTVNFFSKEGNYVEISQVIPHFNEYFSSLIVSQLEFEYPMVFSMISRLRLKAQQSSLAPISYALTSNSVLLPIMLNMIAQDKSSTTAYQILCRRRGPPIQNFQIFSLPAVTYNK [chain 2 W202A]
2	chain 2 MARDITFLTVFLESCGAVNNDEAGKLLSAWTSTVRIEGPESTDSNSLYIPLLPPGMLKIKLNFKMNDRLVTEEQELFTKLREIVGSSIRFWEEQLFYQVQDVSTIENHVILSLKCTILTDAQISTFISKPRELHTHAKGYPEIYYLSELSTTVNFFSKEGNYVEISQVIPHFNEYFSSLIVSQLEFEYPMVFSMISRLRLKWQQSSAAPISYALTSNSVLLPIMLNMIAQDKSSTTAYQILCRRRGPPIQNFQIFSLPAVTYNK [chain 2 L207A]
0.15	chain 2 MARDITFLTVFLESCGAVNNDEAGKLLSAWTSTVRIEGPESTDSNSLYIPLLPPGMLKIKLNFKMNDRLVTEEQELFTKLREIVGSSIRFWEEQLFYQVQDVSTIENHVILSLKCTILTDAQISTFISKPRELHTHAKGYPEIYYLSELSTTVNFFSKEGNYVEISQVIPHFNEYFSSLIVSQLEFEYPMVFSMISRARLKWQQSSLAPISYALTSNSVLLPIMLNMIAQDKSSTTAYQILCRRRGPPIQNFQIFSLPAVTYNK [chain 2 L198A]
0.02	chain 2 MARDITFLTVFLESCGAVNNDEAGKLLSAWTSTVRIEGPESTDSNSLYIPLLPPGMLKIKLNFKMNDRLVTEEQELFTKLREIVGSSIRFWEEQLFYQVQDVSTIENHVILSLKCTILTDAQISTFISKPRELHTHAKGYPEIYYLSELSTTVNFFSKEGNYVEISQVIPHFNEYFSSLIVSQLEFEYPMVFSMISRLALKWQQSSLAPISYALTSNSVLLPIMLNMIAQDKSSTTAYQILCRRRGPPIQNFQIFSLPAVTYNK [chain 2 R199A]
0.27	chain 2 MARDITFLTVFLESCGAVNNDEAGKLLSAWTSTVRIEGPESTDSNSLYIPLLPPGMLKIKLNFKMNDRLVTEEQELFTKLREIVGSSIRFWEEQLFYQVQDVSTIENHVILSLKCTILTDAQISTFISKPRELHTHAKGYPEIYYLSELSTTVNFFSKEGNYVEISQVIPHFNEYFSSLIVSQLEFEYPMVFSMISRLRLKWQQSSLAPISYALTSNSVLLPIMLNMIAQDKSSTTAYAILCRRRGPPIQNFQIFSLPAVTYNK [chain 2 Q239A]
0.9	chain 2 MARDITFLTVFLESCGAVNNDEAGKLLSAWTSTVRIEGPESTDSNSLYIPLLPPGMLKIKLNFKMNDRLVTEEQELFTKLREIVGSSIRFWEEQLFYQVQDVSTIENHVILSLKCTILTDAQISTFISKPRELHTHAKGYPEIYYLSELSTTVNFFSKEGNYVEISQVIPHFNEYFSSLIVSQLEFEYPMVFSMISRLRLKWQQSSLAPISYALTSNSVLLPIMLNMIAQDKSSTTAYQILCRRRGPPAQNFQIFSLPAVTYNK [chain 2 I249A]
0.2	chain 2 MARDITFLTVFLESCGAVNNDEAGKLLSAWTSTVRIEGPESTDSNSLYIPLLPPGMLKIKLNFKMNDRLVTEEQELFTKLREIVGSSIRFWEEQLFYQVQDVSTIENHVILSLKCTILTDAQISTFISKPRELHTHAKGYPEIYYLSELSTTVNFFSKEGNYVEISQVIPHFNEYFSSLIVSQLEFEYPMVFSMASRLRLKWQQSSLAPISYALTSNSVLLPIMLNMIAQDKSSTTAYQILCRRRGPPIQNFQIFSLPAVTYNK [chain 2 I195A]
